The target in test [1] is T1, epidermal growth factor receptor (EGFR) on tumor cells (human, UniProt P00533 25-1210).
T1 construct: whole, on cells; also called EGFR on A431 cells; EGFR on MDAMB468 cells
Kind of test: flow cytometry, soluble monomeric scFv on A431 cells, 4 C, equilibrium. On the procedure:
Cell binding was performed at 4° C. in FACS buffer in a volume calculated to ensure fivefold scFv excess and for a duration calculated to ensure that the reaction had reached equilibrium. After two washes with 200 μL of FACS buffer, cell-bound scFv was detected by the addition of 100 μl of 1 μg/ml biotinylated His probe (Santa Cruz Biotech.) and a 1:800 (v/v) dilution of streptavidin-PE (Biosource). After incubation at 4° C. for 30 min, the cells were washed twice and resuspended in PBS containing 4% (v/v) paraformaldehyde. Fluorescence was measured by flow cytometry in a FACS LSRII instrument (Becton Dickinson), and the median fluorescence intensity (MFI) values were fit to the equation: […]
(§1) To generate soluble scFv, the scFv genes were subcloned from pYD2 into the bacterial secretion vector pSYN1 (Schier et al (1995) Immunotechnology, 1:73-81), which directed the scFv to the bacterial periplasm using the pelB leader. The scFv was harvested from the bacterial periplasm and purified by immobilized metal-affinity chromatography as described (Id.). […] To ensure that the KD of monovalent scFv was determined, gel-filtration chromatography was performed as described (Schier and Marks (1996) Hum. Antibodies Hybridomas: 7: 97-105) to separate native monovalent scFv from dimeric scFv and aggregated scFv. scFv was used for cellular KD measurements immediately after gel-filtration.

Test [2] addresses T2, A431 cells expressing EGFR (Homo sapiens, UniProt P00533).
T2 construct: Human squamous carcinoma A431 cells expressing EGFR; endogenous in cells; host or cells: A431 epidermal (squamous) carcinoma cells
In words: Measurement of scFv affinity for cells expressing EGFR (flow cytometry). In kind it is binding. As to conditions: soluble monovalent scFv, 4° C. As to the method: Human squamous carcinoma A431 cells expressing EGFR were grown to 80-90% confluence in RPMI medium supplemented with 10% fetal bovine serum and harvested by trypsinization. […] Cell binding was performed at 4° C. in FACS buffer in a volume calculated to ensure fivefold scFv excess and for a duration calculated to ensure that the reaction had reached equilibrium. After two washes with 200 μL of FACS buffer, cell-bound scFv was detected by the addition of 100 μl of 1 μg/ml biotinylated His probe (Santa Cruz Biotech.) and a 1:800 (v/v) dilution of streptavidin-PE (Biosource). After incubation at 4° C. for 30 min, the cells were washed twice and resuspended in PBS containing 4% (v/v) paraformaldehyde. Fluorescence was measured by flow cytometry in a FACS LSRII instrument (Becton Dickinson), and the median fluorescence intensity (MFI) values were fit to the equation:
MFI=MFImin+MFImax([Ab]/(KD+[Ab])
using the software program Kaleidagraph as described previously (Benedict et al. (1997) J. Immunol. Methods, 201: 223-231).

The target in the next test is T3, biotinylated EGFR-ECD (Homo sapiens, UniProt P00533).
T3 construct: Recombinant EGFR-ECD was expressed in HEK293 cells; biotin (chemical label, NHS-sulfo-LC-biotin on amines); made in house; host or cells: HEK293 cells
Kind of test: Yeast-displayed scFv affinity for biotinylated EGFR-ECD by flow cytometry. In kind it is binding. The following applies: scFv displayed on yeast; EGFR-ECD only 10% immunoreactive; read-out: KD for biotin-EGFR ECD. On the procedure:
(§2) Generally, six to eight different concentrations of biotinylated EGFR were used to span a range of concentrations from ten times above to ten times below the KD. Incubation volumes, times and yeast numbers were chosen to ensure that the studies were done in at least fivefold antigen excess and that equilibrium had been achieved (Razai et al. (2005) J. Mol. Biol. 351: 158-169). For anti-EGFR scFv, […] in 50 μl were incubated with biotinylated EGFR-ECD for 1 h at room temperature. […] Only yeast displaying scFv (as determined by binding of SV5 mAb) were gated for affinity measurements.

The target in test [3] is T4, MDAMB468 cells expressing EGFR (Homo sapiens, UniProt P00533).
T4 construct: Human breast cancer MDAMB468 cells expressing EGFR; endogenous in cells; host or cells: MDAMB468 breast carcinoma cells
In words: Immunoliposome binding affinity for cells expressing EGFR (flow cytometry). The following applies: read-out: Apparent KD of immunoliposomes. On the procedure: Human breast cancer MDAMB468 cells expressing EGFR were grown to 80-90% confluence in L15 medium supplemented with 10% FBS and harvested by trypsinization. ILs labeled with DiIC18(3)-DS were incubated overnight with 10^4 cells at concentrations of IL ranging from 0.31-2.5 nM. The concentration of IL was converted from the concentration of phospholipid on the basis of the approximate number of phospholipid molecules per liposome (80,000). Cell binding was performed at 4° C. in FACS buffer in adequate volume to ensure a fivefold excess of ILs and that the reaction had come to equilibrium. After two washes with 200 μl of FACS buffer, the amount of cell-bound ILs was quantified by flow cytometry in a FACS LSRII (Becton Dickinson). Data analysis was the same as for the measurement of scFv KD.

The test system of the next test is MDAMB231 cells. Kind of test: Uptake of EGFR immunoliposomes into cells of lower EGFR density. As to conditions: for IL uptake into MDAMB231 cells compared to A431 cells: all scFv densities studied, 480,000 EGFR/cell. In kind it is cell-based, human. As to the method:
(§3) scFv-mediated internalization of fluorescent immunoliposomes was analyzed and quantified by microscopy and flow cytometry. C10 scFv fragments were inserted into liposomes at ratios of 5, 10, 15, 30 and 60 μg scFv/μmol phospholipid (Mamot et al. (2003) Cancer Res. 63: 3154-3161). scFv densities of 16, 32, 48, 96 and 192 scFv/liposome were calculated on the basis of the molecular mass of scFv (26 kDa) and the approximate number of phospholipid molecules/liposome (80,000). The conjugation technology for scFv to Mal-PEG-DSPE is remarkably reproducible with an efficiency of 77.3(±3.1) % (range 75-82% over six batches) (Nellis et al. (2005) Biotechnol. Prog. 21: 205-220). […] For microscopy studies, 150,000 cells were incubated with 50 μM PL of untargeted and EGFR-targeted ILs labeled with DiIC18(3)-DS in a 12-well plate for 2 h at 37° C., followed by washing with PBS and further incubation at 37° C. for 2 h. The cells were then analyzed by using an inverted fluorescence microscope (Nikon Eclipse, TE300) with a 540/25 nm band-pass filter for excitation and a long-pass filter at 565 nm for emission. For quantitative uptake of immunoliposomes, 250,000 cells were incubated with EGFR-targeted ILs labeled with ADS645 in a six-well plate for 2 h at 37° C., washed with PBS, removed in trypsin solution and fluorescence quantified with a FACSAria instrument (Beckton Dickinson). To determine the effect of EGF competition on internalization of EGFR-targeted ILs, IL internalization was quantified as described above, except that 50 μM targeted ILs and cells were incubated with EGF concentrations ranging from 0.2-25 nM. ANOVA (analysis of variance) was used to analyze the statistical differences of the quantified uptake.
To determine the impact of receptor density on IL uptake, we measured the uptake of the different ILs into MDAMB231 cells which express 480,000 EGFR/cell as determined by flow cytometry using Quantum Simply Cellular anti-Human IgG beads (Bangs Laboratories Inc.). […] Uptake into MDAMB231 cells increased with increasing scFv density, reaching a plateau at an IL scFv density of 74 scFv/IL for P2/4 scFv and at 37 scFv/IL for 2224 scFv (FIG. 6C).

Test [4] concerns EGFR-over-expressing MDAMB468 cells. Kind of test: Internalization/uptake of anti-EGFR immunoliposomes (microscopy, flow cytometry). In kind it is cell-based, Human. As to conditions: 74 scFv/liposome; for endocytosis of ILs by fluorescence microscopy: MDAMB468. On the procedure: as §3
Test [5] deals with MDAMB468 cells expressing intact EGFR (Homo sapiens, UniProt P00533). The following applies: EGF competition.
The target of test [6] is T5, biotinylated recombinant EGFR-ECD (UniProt P00533 25-645, limits assumed, biotinylated with NHS-sulfo-LC-biotin).
T5 construct: extracellular domain; The claims speak of human EGFR; also called biotin-EGFR ECD; biotinylated EGFR
In words: flow cytometry, yeast-displayed scFv, biotinylated EGFR-ECD, equilibrium. On the procedure: as §2

Test [7] concerns the target T1, epidermal growth factor receptor (EGFR) …. Kind of test: flow cytometry, soluble scFv on A431 cells; this end is tied to P3/5 through the KD values of Table 2. As to the method:
After two washes with 200 μL of FACS buffer, cell-bound scFv was detected by the addition of 100 μl of 1 μg/ml biotinylated His probe (Santa Cruz Biotech.) and a 1:800 (v/v) dilution of streptavidin-PE (Biosource). After incubation at 4° C. for 30 min, the cells were washed twice and resuspended in PBS containing 4% (v/v) paraformaldehyde. Fluorescence was measured by flow cytometry in a FACS LSRII instrument (Becton Dickinson), and the median fluorescence intensity (MFI) values were fit to the equation: […]
as §1

The results in this text go back to patent US20100009390A1, “MUTANT ANTIBODIES WITH HIGH AFFINITY FOR EGFR” (THE REGENTS OF THE UNIVERSITY OF CALIFORNIA, priority 2008, published 2010).

Positions count from the first letter of the chain named. Several values for one entry are separate records, joined by “and”; a condition that tells them apart may be missing. Equal values may be shown once. Read-outs that look alike come from different tables or passages of the source.

B1: anti-EGFR scFv C10 (scFv, V domains shown)
VH: EVQLVQSGAEVKKPGSSVKVSCKASGGTFSSYAISWVRQAPGQGLEWMGGIIPIFGTANYAQKFQGRVTITADESTSTAYMELSSLRSEDTAVYYCAREEGPYCSSTSCYGAFDIWGQGTLVTVSS
VL: QSVLTQDPAVSVALGQTVKITCQGDSLRSYFASWYQQKPGQAPTLVMYARNDRPAGVPDRFSGSKSGTSASLAISGLQSEDEADYYCAAWDDSLNGYLFGAGTKLTVL
notes: Soluble monomeric scFv from pSYN1 in E. coli (Ni-NTA purified, detected with a His probe) in the assays on cells; also called C10 scFv; wild-type C10 scFv
B1 had a Kd in test [1] of 0.264 µM.

B2: P3/5: C10 scFv mutant from the P3 sort gate; SEQ ID NO:11 (protein)
scFv: B1 VH with M48V, T69K, T76A
modifications: Variable chain of single chain antibody.
As to B2, the Kd in test [2] came out at 0.088 µM.

B3: P2/4: C10 scFv mutant, Gly to Ala in VH CDR3 and Pro to Ala in VL FR1; SEQ ID NO:5 (protein)
scFv: B1 VH with G111A
modifications: Variable chain of single chain antibody.
As to B3, the Kd was 1.8 µM with biotinylated EGFR-ECD; 0.00204 µM in test [3] (37 scFv/liposome); 0.0004 µM in test [3] (74 scFv/liposome); 0.00018 µM in test [3] (148 scFv/liposome); 0.015 µM and 0.0154 µM in [2]. Besides, the “IL scFv density at which uptake into MDAMB231 cells reaches a plateau” value with MDAMB231 cells is on record as 74 scFv/IL. Besides, the “IL uptake into MDAMB231 cells compared to A431 cells” value in the test on MDAMB231 cells is “significantly less uptake”. The “IL uptake greater compared to C10” value in test [4] (IL 0.63 nM, flow cytometry) is listed as 24%. In test [4], the “endocytosis of ILs by fluorescence microscopy” value is given as “endocytosed efficiently”.

B4: 2224: combined mutant scFv: P2/2 with the VH CDR3 Gly to Ala mutation from P2/4; SEQ ID NO:17 and 24 (protein)
scFv: B1 VL with F31L, M47T
modifications: Variable chain of single chain antibody.
Consider B4, for which, in the test on MDAMB231 cells, the “IL scFv density at which uptake into MDAMB231 cells reaches a plateau” value came to 37 scFv/IL and the “IL uptake into MDAMB231 cells compared to A431 cells” value was “significantly less uptake”. In addition, the “difference in IL uptake versus ILs from C10 or P2/4 scFv” value in test [4] (IL 0.63 nM, flow cytometry) was “no statistically significant difference”. Further, in test [4], the “endocytosis of ILs by fluorescence microscopy” value is listed as “endocytosed efficiently”. Also, the “IC50 of ILs less than the scFv IC50” value in [5] came to 20 fold.

B5: combined C10 mutant scFv 2224 (scFv, V domains shown)
VH: B1 VH with S35G, T57I, T78S, G111A
VL: B1 VL with S79P
notes: P2/2 with the VH CDR3 Gly to Ala substitution of P2/4; soluble His-tagged monomeric scFv on cells
Consider B5, for which the Kd in [6] was 0.6 µM.

B6: C10 mutant scFv P3/5 (scFv, V domains shown)
VH: B1 VH with M48V, T69K, T76A
VL: B1 VL with F31L, M47T
notes: soluble His-tagged monomeric scFv on cells
In the case of B6, the Kd in test [1] is 0.0882 µM. The “fold improvement in affinity compared to C10 scFv” value in test [7] lay within 3 to 18 fold.

B7: C10 mutant scFv P2/2 (scFv, V domains shown)
VH: B1 VH with S35G, T57I, T78S
VL: B1 VL with S79P
notes: as for B6
Take B7: the values for the Kd in test [1] and in [6] were 0.017 µM and 1.8 µM, respectively.
